Results: the nanobody polyreactivity screen of Harvey et al. (2022)

Test: yeast display, Sf9 membrane polyspecificity reagent, FACS + sequencing; frameworks hold sequencing errors
Method in brief: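 A nanobody's polyreactivity label depends on the gate it was sorted from. Yeast display cells were stained with 10% biotinylated, detergent-solubilized Sf9 membrane reagent for 1 hour at 4 °C, enriched on streptavidin microbeads and sorted by FACS. The low and high (top ~1%) gates were set on anti-HA fluorescence for expression and streptavidin fluorescence for reagent binding.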

Row | Sequence | polyreactivity (PSR sort gate)
1 | QVQLVETGGGLFQAGGSLRLSCAPSGFTFRYNAMGWYRQAPGKERELVAAISWSGGSTYYADSVKGRFTISRDNAKNTVYLQMNSLKPEDTAVYYSNAEYDDYAGEFDYWGQGTQVTGSS | low polyreactivity
2 | QVQLVESGGGLVQAGGSLRLSCAASGRTFRYYAMGWYRQAPGKERELVASITKRGGSTYYADSVKGRFTISRDNAKNTVYLQMNSLKPEDTAVYYCNTRTGSFFQGYYWGQGTQVTVSS | high polyreactivity
3 | QVQLVDSGGGLVQAGGSLRLSCAASGRIFRWNAMGWYRQAPGKERELVAVISSGGSTNYADSVKGRFTISRDNAKNTVYLQMNSLKPEDTAVYYCAKGLIRYSHLDYWGQGTQVTVSS | low polyreactivity
4 | QVQLVESGGGLVQAGGSLRLSCAASGSIFPYNAMGWYRQAPGKERELVAAITSSGGRTYYADSVKGRFTISRDNAKNTVYLQMNSLKPEDTAVYYCAVEANYHTYWLYYWGQGTQVTVSS | high polyreactivity
5 | QVQLVESGGGLVQAGGSLRLSCAPSGLTFDVYAMGWYRQAPWKQRELVAAISSIGGSTYYADSVKGRFTISRDTAKNTVYVQMNSLKPEDTAVYYCAAAISLYSYDYWGQGTQVTVSS | low polyreactivity
6 | QVQLVESGGGLVQSGGTLRLSCAASGSTFYVNAMGWYRLAPGKERELVAAINYSGGNTYYADSVKGRFTFSRDNAKNTVYLQMNTLKQEDTAVYYCAVDLIIKGYPWWIEDDYWGQGTQVTVSS | high polyreactivity
7 | QVQLVESGGRLVQAGGSLRLSCAASGSIINVNTMGWYRQAPGKERELVAAISSGGRTYYADSVKGRFTISRDNAKNTVYLQMNSLKPEDTAVYYCNTVLGVYDYDYWGQGTQVTVSS | low polyreactivity
8 | QVQLVESGGGLVQAGGSLRLSCAASGFIFYSNAMGWYIQAPGKEREVVAAISWDAGSTYYADSVKGRFTISRDNAKNTVYLQMISLKPEDSAVYYCATDRIVGRYIYNYWGQGTQVTVSS | high polyreactivity
9 | QVQLVESGGGLVQAGGSLRLSCAASGLTFGYYVMGWYRQAPGKERELVAAISFRGVSTYYADSVKGRFTISRDNAKKTVDLQMNSLKPEDTAVNYCARRYTSKGGYDYWGQGTQVTVSS | high polyreactivity
10 | QVQLVESGGGLVQAGGSLRLICAASGFIFSTYAMGWYRQAPGKERELVAAISWSGGRTNYADSVKGRFTISRDNAKNTVYLQMNSLKPEDTAVYYCARYGHSGRQYKYDYWGQGTQVTVSS | high polyreactivity
11 | QVQLVESGGGLVQAGGSLRLSCAASGSTFGTNAMGWYRQAPGKERELVAAITKSGGSTYADSVKGRFTISRDNAKNTVYLQMNSLKPEDTAVYYCAAPNRYSVPMYYWGQGTQVTVSS | low polyreactivity
12 | QVQLVESGGGLVQAGGSLRLSCAASGHTLAVNAKGWYRQATGKERELVAAITRSGVTTSYADSVKGRFTISRDNAKNTVYLQMNSLKPEDTAVYYCAAQLDASYLTGGWRRHYNYWGQGTQVTVSS | low polyreactivity
13 | QVQLVESGGGLVQAGGSLRLSCAASGSICGTYAMGWYRQAPGKERELVARITRGVSTNYADSVKGRFTISRDNAKNTVYLQMTSLKPEDTAVYYCAAESGNRYEYWGQGTQVTVSS | low polyreactivity
14 | QVQLVESGGGLVQAGGSLRLSCAASGRTFRYNAMGSYRQAPGKERELVAAISGRGSSTYYADSVKGRFTISRDNAKNTVYLQMNSLKPEDTAVYYCAALPASVRRPGWHDYWGQGTQVTVSS | high polyreactivity
15 | QVQLVESGGCLVQAGGSLRLSCAASGRRVQTYAMGWYRQAPRKERELVAAISIRGGSTYYADSVKGRFTISRDNAKNTVYLQKNSLTPEDTAVYYCNALYGRQIVDYEYWGQGTQVTVSS | low polyreactivity
16 | QVQLVETWGGLVQAGGTLRLSCAASGSIFSPYAMGWYRQAPGKERELVAAISRNGGTTYYADSVKGRFTISRDNAKNTVYLQMNSLKPEDTAVYYCARLYYTQKDSKTGYGYWGQGTQVTVSS | high polyreactivity
17 | QVQLVESGGGLVQAGGSLRLSCAASGGIFVTYAMGWCRQAPGKERELVAAITSGDSTYYADSVKGRFTISRDNAKNPVYLQMNSLKPEDTAVYYCAVGSTDRVSAQGSYFTYDYWGQGTQVTVSS | low polyreactivity
18 | QLQLVESGGGLVQAGGSLRLSCAASGRIFVRYAMGWYRQAPGKERELVAAISGRGTSTYYADSVKGRFTISRDNAKNTVYLQMNSLKPEDTAVYDCNTFSQPKWGTSDYDYWGQGTQVTVSS | high polyreactivity
19 | QVQLVESGGGLVQAGGSLRLSSAASGSTFNLYAMGWYRQAPGKERELVAAISRRGGSTYYADSVKGRFTISRDNAKNTVYLQMNSLKPEDTAVYYCAAVVVTGQGDKYDYWGQGTQVTVSS | high polyreactivity
20 | QVQLVESGGGLVQAGGSLRLSCAASGFIIYGYAMGWYRQAPGKESELVAAISRRSASTYYADSVKGRFTISRDNAKNTVYLQMNSLNPEDTAVYYCNAASARGVIGYKPLWYARGYWGQGTQVTVSS | high polyreactivity
21 | QVQLVESGGGLFQAGGSLRLSCAASGITLAYNAMGWYRQAPGKEREFVAAIDVSGGRTYYADSVKVRFTISRDKSKNTVNLQMNSLNPEDTAVYYCAADVAEFSVGYWQDYDYWGQGTQVTVSS | low polyreactivity
22 | QVQLVQSGGGLVQAGGSLRLSCAASGGTFQHNTMGWYRQAPGKEWQLVAAIRGSDGSTYYADSVKGRFTISRDNAKNTVYLQMNSLKPEDTAVYYCNRAYTASYIPGVGFWGQGTQVTVSS | high polyreactivity
